Measurements published in US9982287B2, “Enterokinase cleavable polypeptides” (Novo Nordisk A/S, priority 2013, dated 2018).
No end group written: not given here. *: point of attachment. Dnp = O=[N+]([O-])c1ccc(*)c([N+](=O)[O-])c1; 2Abz = Nc1ccccc1C(=O)O

Experiments:
[1] = biological target: T1, Enterokinase bovine light chain variant (C112A, L134K, I135K) (Bos taurus, UniProt P98072, C912A/I935K/L934K); assay: EK-kinetics_2: initial rates of Enterokinase hydrolysis of full length GLP-1 with an N-terminal extension (UPLC); assay type: biochemical; settings: Z1 = entire [Arg34]GLP-1(9-37), N-terminal extension Z2; slowest D4K site in this set = 100%; initial substrate 1 mg/ml, pH 8.5
T1 construct: the bovine light chain variant (C112A, L134K, I135K) as described in WO2013/092855A1; made in house
T1 sequence (P98072 801-1035 C912A/L934K/I935K): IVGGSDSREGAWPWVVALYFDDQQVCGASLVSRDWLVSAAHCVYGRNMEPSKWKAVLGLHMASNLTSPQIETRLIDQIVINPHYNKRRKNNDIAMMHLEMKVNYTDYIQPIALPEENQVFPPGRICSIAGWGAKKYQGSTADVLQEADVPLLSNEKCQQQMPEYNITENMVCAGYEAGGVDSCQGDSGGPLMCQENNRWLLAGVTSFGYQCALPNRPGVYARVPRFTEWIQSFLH
Description: Method: EK-kinetics_2 • EK-kinetics_2 was performed by calculating initial rates of hydrolysis of full length GLP-1 with an N-terminal extension. Substrate concentrations were in the range 150-300 μM. The hydrolysis reaction was started by adding an amount of enterokinase giving a final concentration of 9.5 nM. Samples were taken after 6.2 min, 18.7 min, 43.7 min, 86.3 min, 151.3 min, and 243.8 min and quenched by a 1+9 dilution into 5% acetic acid. A suitable method was used on a Waters iClass UPLC to separate and individually quantify remaining substrate and formed product on an analytical reversed-phase column by integrating peak areas. An equation of the following form was fitted to the raw data: […]
wherein t is time, cs0 is initial substrate concentration, cE is enzyme concentration, cPt is product concentration at time t, cSt is substrate concentration at time t, kcat and Km are hydrolysis parameters, and Ki is product inhibition constant. A constant Ki of 0.1 μM was used for all reactions. Initial hydrolysis rates were calculated based on the parameters determined for a initial substrate concentration of 1 mg/ml for all peptides. All reactions were performed in 50 mM Tris buffer, 1 mM EDTA, pH 8.5.
(§1) • The Enterokinase enzymes used for examples herein was the bovine light chain variant (C112A, L134K, I135K) as described in WO2013/092855A1.

[2] = biological target: T1, Enterokinase bovine light chain variant (C112A, L134K, I135K); assay: EK-kinetics_1: initial rates of Enterokinase hydrolysis of intramolecularly quenched fluorogenic peptides; assay type: biochemical; settings: Z1 = HAEGT, X6 absent; for Activity (%): relative Enterokinase cleavage rate of reference substrates: reference EK-sites, normalised to substrate with D4K site = 100%
Description: These peptide substrates have the following general structure: Z2*-X6-X5-X4-GDR-Z1* Formula (II) • wherein • X6-X5-X4 have the same meaning as in formula (I) (each being an amino acid, however X6 being optional), • Z2 is Lys(Dnp) and • Z1* is Z1-Lys(Abz)amide, where Z1 is as defined in formula (I). • SPPS_I was performed on a Multipep RSi synthesizer from Intavis Bioanalytical Instruments AG (Koeln, Germany) at 3-μmol scale in parallel using 2.5 fold excess of Fmoc-amino acids (300 mM in NMP with 300 mM Oxyma Pure®) relative to resin loading e.g. Rinkamide-Chematrix (0.5 mmol/g). Fmoc-deprotection was performed using 20% piperidine in NMP. Coupling was performed using 1:1:1:1 amino acid/Oxyma Pure®/DIC/collidine in NMP. All amino acids were “double or triple coupled”, meaning that after the first coupling (60 min), the resin is drained and more reagents are added (amino acid, Oxyma Pure®, DIC, and collidine), and the mixture allowed to react again (60 min).
Method: EK-Kinetics_1 • EK-kinetics_1 was performed by measuring initial rates of hydrolysis of intramolecularly quenched fluorogenic peptides: Lys(Dnp)-peptide-Lys(Abz)amide according to formula (II). After measuring the background fluorescence of peptides, generally at a substrate concentration in the range of 1 to 50 μM, initial rates of hydrolysis was measured by addition of purified enterokinase enzyme at a concentration enabling reading the initial rate of hydrolysis, i.e. less than 5% hydrolysis in 30 min. Typically an enzyme concentration of 1 to 10 nM may be used. After up to one hour of hydrolysis additional enzyme was added to enable measurement of the fluorescence level at total hydrolysis. Hydrolysis rates were generally measured in 50 mM MOPS buffer, 1 mM EDTA, pH 7.5 at 25° C. using a Perkin Elmer Enspire fluorescence plate reader using 320 nm for excitation and 420 nm for emission.
as §1

Substance	Activity (%): relative Enterokinase cleavage rate of reference substrates [2]	also measured
DVKPGQPLYDEGDR-[Arg34]GLP-1(9-37) (DVKPGQPLYDEGDREGTFTSDVSSYLEGQAAKEFIAWLVRGRG; Enterokinase cleavable polypeptide) [Example 119]	–	Activity (%): relative Enterokinase cleavage rate [1]: 707%
Lys(Dnp)-AEGDR-HAEGT-Lys(Abz)amide (K(Dnp)AEGDRHAEGTK(2Abz)-NH2; N-terminus assumed; SMILES C[C@H](NC(=O)[C@H](Cc1c[nH]cn1)NC(=O)[C@H](CCCNC(=N)N)NC(=O)[C@H](CC(=O)O)NC(=O)CNC(=O)[C@H](CCC(=O)O)NC(=O)[C@H](C)NC(=O)[C@@H](N)CCCCNc1ccc([N+](=O)[O-])cc1[N+](=O)[O-])C(=O)N[C@@H](CCC(=O)O)C(=O)NCC(=O)N[C@H](C(=O)N[C@@H](CCCCNC(=O)c1ccccc1N)C(N)=O)[C@@H](C)O) [Example 1]	–	Activity (%): relative Enterokinase cleavage rate ([2]; initial rate normalised to substrate with D4K site = 100%): 382%
Lys(Dnp)-IMGDRHAEGT-Lys(Abz)amide (K(Dnp)IMGDRHAEGTK(2Abz)-NH2; N-terminus assumed; SMILES CC[C@H](C)[C@H](NC(=O)[C@@H](N)CCCCNc1ccc([N+](=O)[O-])cc1[N+](=O)[O-])C(=O)N[C@@H](CCSC)C(=O)NCC(=O)N[C@@H](CC(=O)O)C(=O)N[C@@H](CCCNC(=N)N)C(=O)N[C@@H](Cc1c[nH]cn1)C(=O)N[C@@H](C)C(=O)N[C@@H](CCC(=O)O)C(=O)NCC(=O)N[C@H](C(=O)N[C@@H](CCCCNC(=O)c1ccccc1N)C(N)=O)[C@@H](C)O) [Example 111]	125%	–
Lys(Dnp)-INDDRHAEGT-Lys(Abz)amide (K(Dnp)INDDRHAEGTK(2Abz)-NH2; N-terminus assumed; SMILES CC[C@H](C)[C@H](NC(=O)[C@@H](N)CCCCNc1ccc([N+](=O)[O-])cc1[N+](=O)[O-])C(=O)N[C@@H](CC(N)=O)C(=O)N[C@@H](CC(=O)O)C(=O)N[C@@H](CC(=O)O)C(=O)N[C@@H](CCCNC(=N)N)C(=O)N[C@@H](Cc1c[nH]cn1)C(=O)N[C@@H](C)C(=O)N[C@@H](CCC(=O)O)C(=O)NCC(=O)N[C@H](C(=O)N[C@@H](CCCCNC(=O)c1ccccc1N)C(N)=O)[C@@H](C)O) [Example 112]	126%	–
